Laboratory results as given in US7157616B2, “Method of selecting non-diabetogenic milk or milk products and milk or milk products so selected” (priority 1994, dated 2007).
Like-named read-outs stand apart in the source and are kept apart here. Marks after values point to notes of the source that are not given here. Ends that are not written are not given here.

How the values were obtained:
normal human macrophage = test: Binding of tritiated hexapeptides to normal PB monocyte/macrophages; conditions: for CPM bound: +Glucose, NaN3, Captopril, Benzylsuccinate, Elastatinal
Source text: (§1) Using the method described by M'Hamiel Jaziri et al (1992) the human macrophage binding of the bovine peptides Pro-63 to Asn-68 (from the β-casein A1 and A2 variant sequences) were studied and compared with the binding of the peptide Val-54 Tyr-59 from human β-peptide to each of a normal human macrophage and a prediabetic human macrophage.

[1] = tested on: prediabetic human macrophage; test: Binding of tritiated hexapeptides to prediabetic PB monocyte/macrophages; conditions: for CPM bound: +Glucose, NaN3, Captopril, Benzylsuccinate, Elastatinal
Source text: as §1

human macrophage = conditions: cited from earlier work
murine macrophages = conditions: cited from earlier work
[2] = biological target: binding site on normal human PB monocyte/macrophages (human); test: binding of tritiated hexapeptide to PB monocyte/macrophages
[3] = biological target: binding site on prediabetic human PB monocyte/macrophages (human); test: as above
[4] = biological target: binding site on normal human PB monocyte/macrophages (human); test: binding of tritiated hexapeptide to PB monocyte/macrophages; reference bovine A1 peptide
[5] = biological target: binding site on prediabetic human PB monocyte/macrophages (human); test: as above
NOD mice = test: Diabetes incidence in NOD mice fed β-casein A1/A2 variants, whey or Bos indicus casein as 10% additions to Prosobee; assay type: in vivo, mouse; conditions: for Number of Animals Developing Diabetes by 250 days / Percentage of animals developing diabetes by 250 days: 10% addition to Prosobee infant formula from weaning
Source text: Similar groups of mice were fed a diet of the soy infant formula Prosobee™ and 10% W/W of: […]
d) Bos indicus casein, or
e) a 50/50 mixture of β-casein A1 variant/A2 variant.
The β-casein A1 variant precipitated diabetes in […] cases, the A2 variants in no cases and the A1/A2 mixture in 4 of 20 cases. The result mid-way between the […] results is consistent with there being no interaction between A1 and A2.
Lactic casein was manufactured in the New Zealand Dairy Research Institute Pilot Plant from the β-casein A1A1 and A2A2 phenotype bulk milks using methods essentially identical to those used in a standard New Zealand commercial lactic casein manufacturing dairy factory (see Muller, 1986). These caseins together with other constituents were then used in the feeding trials as described in Examples 2 and 3.

For “Human: tritiated hexapeptide Val-54 to Tyr-59 from human β-casein (VEPIPY; also: tritiated) [reference compound]”, the “Ratio */** (Human / Bovine A1 CPM)” value (normal human macrophage; NORMAL PBM (N = 3)) was 1.2, the CPM bound (normal human macrophage; NORMAL PBM (N = 3)) was 2750* CPM and the “binding to normal human macrophages” value (normal human macrophage) was “bind specifically”. The “Ratio */** (Human / Bovine A1 CPM)” value ([1]; PREDIABETIC PBM (N = 3)) was 0.31, the CPM bound ([1]; PREDIABETIC PBM (N = 3)) was 1400* CPM and the “binding to prediabetic macrophages” value [1] was “bind specifically”. The “binding site on the human macrophage” value (human macrophage) was “specific binding site”.

For “Pro-Gly-Pro-Ile-His-Asn (PGPIHN; also: tritium label) [Bovine A1]”, the CPM bound (normal human macrophage; NORMAL PBM (N = 3)) was 2220** CPM, the “binding to normal human macrophages” value (normal human macrophage) was “bind specifically” and the CPM bound ([1]; PREDIABETIC PBM (N = 3)) was 4500** CPM. For the same molecule, the “binding to prediabetic macrophages” value [1] was “bind specifically” and the “phagocytic activity of murine macrophages” value (murine macrophages) was “stimulate the phagocytic activity”.

For “Bovine A2: tritiated bovine hexapeptide Pro-63 to Asn-68 from the β-casein A2 variant sequence (proline at position 67) (PGPIPN; also: tritiated)”, the CPM bound (normal human macrophage; NORMAL PBM (N = 3)) was 2900 CPM and the CPM bound ([1]; PREDIABETIC PBM (N = 3)) was 2750 CPM.

“peptide Val-54 to Tyr-59 from human β-casein (from UniProt P05814 69-74)” gave a CPM [2] of 2750 CPM, a CPM [3] of 1400 CPM and a Ratio */** (human CPM to bovine A1 CPM) [4] of 1.2. For the same molecule, the Ratio */** (human CPM to bovine A1 CPM) [5] was 0.31.

B1: β-casein A1 variant: bovine β-casein A1 variant (SEQ ID NO: 2); casein made from milk of β-casein A1A1 phenotype cows (protein)
chain: RELEELNVPGEIVESLSSSEESITRIDKKIEKFQSEEQQQTEDELQDKIHPFAQTQSLVYPFPGPIHNSLPQNIPPLTQTPVVVPPFLQPEVMGVSKVKEAMAPKHKEMPFPKYPVQPFTESQSLTLTDVENLHLPPLLLQSWMHQPHQPLPPTVMFPPQSVLSLSQSKVLPVPEKAVPYPQRDMPIQAFLLYQQPVLGPVRGPFPIIV
With B1 the “diabetogenic activity (words)” value (NOD mice) was “diabetogenic”, the “Number of Animals Developing Diabetes by 250 days” value (“Number” below) (NOD mice) was 9 and the “Percentage of animals developing diabetes by 250 days” value (NOD mice) was 45%. For the same molecule, the “diabetogenic activity (words)” value (NOD mice; listed as A1 variant) was “does have diabetogenic activity”.

B2: β-casein A2 variant: bovine β-casein A2 variant; casein made from milk of β-casein A2A2 phenotype cows (protein)
chain: RELEELNVPGEIVESLSSSEESITRIDKKIEKFQSEEQQQTEDELQDKIHPFAQTQSLVYPFPGPIPNSLPQNIPPLTQTPVVVPPFLQPEVMGVSKVKEAMAPKHKEMPFPKYPVQPFTESQSLTLTDVENLHLPPLLLQSWMHQPHQPLPPTVMFPPQSVLSLSQSKVLPVPEKAVPYPQRDMPIQAFLLYQQPVLGPVRGPFPIIV
In the case of B2, the “diabetogenic activity (words)” value (NOD mice) is reported as “is not”, the “Number” value (NOD mice) is reported as 0 and the “Percentage of animals developing diabetes by 250 days” value (NOD mice) is reported as 0%. The “Number” value (NOD mice; listed as A2 variants) was “no cases” and the “diabetogenic activity (words)” value (NOD mice; listed as A2 variant) was “do not show diabetogenic activity”.

For PGPIPN (also: tritiated) [bovine β-casein A2 hexapeptide Pro-63 to Asn-68], the CPM [2] was 2900 CPM and the CPM [3] was 2750 CPM.

Work on PGPIHN (also: tritiated) [bovine β-casein A1 hexapeptide Pro-63 to Asn-68 (Pro-Gly-Pro-Ile-His-Asn)] yielded a CPM [2] of 2220 CPM and a CPM [3] of 4500 CPM.
